Source: the nanobody polyreactivity screen of Harvey et al. (2022)

Test: yeast display, Sf9 membrane polyspecificity reagent, FACS + sequencing; frameworks hold sequencing errors
In short: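 A synthetic nanobody library was expressed on Saccharomyces cerevisiae BJ5465 by galactose induction for 36–48 hours. The library was stained for 1 hour at 4 °C with 10% biotinylated, detergent-solubilized Sf9 membrane reagent and enriched with streptavidin microbeads before FACS. Low and high (top ~1%) gates were set on anti-HA fluorescence for expression and streptavidin fluorescence for reagent binding, and each polyreactivity label reflects the gate of origin.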

QVQLVESGGGLVQAGGSLRLSCAASGRIFVRNAMGWYRQAPGKERELVADITNGGSTNYADSVKGRFTISRDNAKNTVYLQMNSLKPEYTAVYYCAADTLGVYDGDYWGQGTQVTVSS
polyreactivity (PSR sort gate): low polyreactivity

QVQLVESGGGLVQAGGSLRLSCAASGRIFVRNAMGWYRQAPGKERELVAGISKRGSRTYYADSVKGRFTISRDNPKNTVYLQMNSLKPEDTAVYYCAVRSYIASYRDARIRFYYWGQGTQVTVSS
polyreactivity (PSR sort gate): high polyreactivity

QVQLVESGGGLVQAGGSLRLSCAASGRIFVRNAMGWYRQAPGKERELVASISSSSGSTYYADSVKGRFTISRDNAKNTVYIQMNSLKPEDTAVYYCNAGYHFVHWPHVKHKKFDYWGQGTQVTVSS
polyreactivity (PSR sort gate): low polyreactivity

QVQLVESGGGLVQAGGSLRLSCAASGRIFVRNPMGWYRQAPGKERELVADITNGGSTNYADSVKGRFTISRDNAKNTVYLQMNSLKPEDTAVYYCAATYPYSWVYSGYYYWGQGTQVTVSS
polyreactivity (PSR sort gate): low polyreactivity

QVQLVESGGGLVQAGGSLRLSCAASGRIFVRYAMGWYRQAPGKERELVAAITKSGGSTYYADSVKGRFTISRDNAKNTVYLQMNSLKPEDTAVYYCNADRFYIDYTNTYDSIRDYWGQGTQVTVSS
polyreactivity (PSR sort gate): low polyreactivity

QVQLVESGGGLVQAGGSLRLSCAASGRIFVRYTMGWYRQAPGKERELVAAITKRGGSTYYADSVKGRFTISRDNAKNTVYLQMNSLKPEDTAVYYCATDGLGYNRPQDEYWGQGTQVTVSS
polyreactivity (PSR sort gate): high polyreactivity

QVQLVESGGGLVQAGGSLRLSCAASGRIFVSNDMGWYRQAPGKERELVAAISWSDDSTHYADSVKGRFTISRDNAKNTVYLQMNSLKPEDTAVYYCNKQRYYSTWRYDYWGQGTQVTVSS
polyreactivity (PSR sort gate): low polyreactivity

QVQLVESGGGLVQAGGSLRLSCAASGRIFVSYDMGWYRQAPGKEREFVAAIRRSGSSTYYADSVKGRFTISRDNAKNTVYLQMNSLKPEDTAVYYCAAYQRSRTLRRYDYWGQGTQVTVSS
polyreactivity (PSR sort gate): high polyreactivity

QVQLVESGGGLVQAGGSLRLSCAASGRIFVTYAMGWYRHAPGKERELVAAITSDGSTSYADSVKGRFTISRDNAKNTGYLQMNRLKPEDTAVYYSAKDFFEHSPVSHTYSSSKYEYWGQGTQVTVSS
polyreactivity (PSR sort gate): low polyreactivity

QVQLVESGGGLVQAGGSLRLSCAASGRIFVTYAMGWYRQAPGKERELVAVISWSGGSTYYADSVKGRFTISRDNAKNTVYLQMNSLKPEDTAVYYCARGLRKVRFDYWGQGTQVTVSS
polyreactivity (PSR sort gate): low polyreactivity

QVQLVESGGGLVQAGGSLRLSCAASGRIFVVNAMGWYRQAPGKERELVATITRGASTYADSVKGRFTISRDNAKNTVYLQMNSLKPEDTAVYYCAARSGSWGQGTQVTVSS
polyreactivity (PSR sort gate): high polyreactivity

QVQLVESGGGLVQAGGSLRLSCAASGRIFVVNAMGWYRQAPGTERELVAAITRRGGSTYADSVKGRFTISRDNAKNTVYLQMNSLKPEDTAVYYCNAESYYGIFRYKYDYWGQGTQVTVSS
polyreactivity (PSR sort gate): high polyreactivity

QVQLVESGGGLVQAGGSLRLSCAASGRIFVVNDMGWYRQAPGKERELVAAMNSGGRTNYADSVKGRFTISRDNAKNTVYLQMPSLKPEDTAVYYCNAKRTGPWFLHVPVYYWGQGTQVTVSS
polyreactivity (PSR sort gate): low polyreactivity

QVQLVESGGGLVQAGGSLRLSCAASGRIFVVYAMGWYRQAPGKESELVATISGGSTNYADSVKGRFTISRDNAKNTVYLQMNSVKPDDTAVYYCGMEYWGQGTQVTVSS
polyreactivity (PSR sort gate): low polyreactivity

QVQLVESGGGLVQAGGSLRLSCAASGRIFVVYTMRWYRQAPGNERELVASIRGSGDSTNYADSVKGRFTISRDNAKNTVYLQMNSLKPEDTAVYYCAADLPWSRRYSYRYGYWGQGTQVTVSS
polyreactivity (PSR sort gate): low polyreactivity

QVQLVESGGGLVQAGGSLRLSCAASGRIFVYNAMGWYRQAPGKERELVAAISKGGGSTYYADSVKGRFTISRDNAKNTVYLQMNSLKPEDTAVYYCAAVVSGRYWGKKITYDYWGQGTQVSVSS
polyreactivity (PSR sort gate): high polyreactivity

QVQLVESGGGLVQAGGSLRLSCAASGRIFVYNTMGWYRQAPGKERELVAAITSGGNTYYADSVKGRFTISRDNAKNSVYLQMNSLKPEDTAVYYCNAYPGYDPYRRYDYWGQGTQVTVSS
polyreactivity (PSR sort gate): high polyreactivity

QVQLVESGGGLVQAGGSLRLSCAASGRIFVYYAMGWYRQAPGKERELVAAITSGGGSTYYADSVKGRFTISRDNAKNTVYLQMNSLKPEDTAVYYCNKGYYYPYDYWGQGTQVTVSS
polyreactivity (PSR sort gate): high polyreactivity

QVQLVESGGGLVQAGGSLRLSCAASGRIFVYYAMGWYRQAPGKERELVAAMNAGGSTNYADSVKGRFTISRDNAKNNVYLQMYSLKPEDTAVYYCAAVRRSRYSYRGYYWGQGTQVTVSS
polyreactivity (PSR sort gate): high polyreactivity

QVQLVESGGGLVQAGGSLRLSCAASGRIFVYYAMGWYRQAPGKERELVATISSGGSTYYADSVKGRFTISRDNAKNTVYLQMNSLKPEDTAVYYCAADNVNRYLAYYYKGDYWGQGTQVTVSS
polyreactivity (PSR sort gate): low polyreactivity

QVQLVESGGGLVQAGGSLRLSCAASGRIFWANAMGWYRQAPGKERELVATISRSGGTTYYADSVKGRFTISRDNAKNTVYLQMNSLKPEATAVYYCAAEDWSLYDYGDRLWYSPYYYWGQGTQVTVSS
polyreactivity (PSR sort gate): high polyreactivity

QVQLVESGGGLVQAGGSLRLSCAASGRIFWDNAMGWYRQAPGKERELVAAISDSVVITYYADSVKGRFTISRDNAKNTVYLQMNSLKPEDTAVYYCNTDARYDEYDEFDYWGQGTQVTVSS
polyreactivity (PSR sort gate): low polyreactivity

QVQLVESGGGLVQAGGSLRLSCAASGRIFWDNAMGWYRQAPGKVRELVAVMNSGDSTNYADSVKGRFTISRDNAKNTVYLQMNSLKPEDTAVYYCATDFIGVIYDYWGQGTQVTVSS
polyreactivity (PSR sort gate): low polyreactivity

QVQLVESGGGLVQAGGSLRLSCAASGRIFWDYAMGWYRQAPGKERELVAGISYSGGSTSYADSVKGRFTISRDNAKNTVYLQMNSLKPEDTAVYYCAARPSGTFFRDYDYWGQGTQVTVSS
polyreactivity (PSR sort gate): low polyreactivity

QVQLVESGGGLVQAGGSLRLSCAASGRIFWGSAMGWFRQAPGKERELVAAITRSGGRTYYADSVKGRFTISRDNAKNTVYLQRNSLKPDDTPVYYCAAYYWYKWGYKYGYWGQGTQVTVST
polyreactivity (PSR sort gate): high polyreactivity

QVQLVESGGGLVQAGGSLRLSCAASGRIFWGYAMGWSRQAPGKERELVAGITYSGGSTYYADSVKGRFTISRDNAKNTVYLQMNSLKPEDTAVYYCAAAKSYRSGSWYEYWGQGTEVTVSS
polyreactivity (PSR sort gate): high polyreactivity

QVQLVESGGGLVQAGGSLRLSCAASGRIFWGYAMGWYRQAPGKERELVAAISSGGSTNYADSVKGRFTISRDNAKNTVYLQMNSLKPEDTAVYYCAKDHAYTSAPHQYASEYYYWGQGTQVTVSS
polyreactivity (PSR sort gate): low polyreactivity

QVQLVESGGGLVQAGGSLRLSCAASGRIFWLNAMGWYRQAPGKEREFVASITYGSDSTYYADSVKGRFTISRDNAKNTVYLHMNSLKPEDTAVYYCNREGWHYGPYGYWGQGTQVTVSS
polyreactivity (PSR sort gate): low polyreactivity

QVQLVESGGGLVQAGGSLRLSCAASGRIFWSNAMGWYRQAPGKERELVATISSGGRTYYADSVKGRFTISRDNAKNTVYLQMNSLKPEDTAVYYCAAVTFWFWPGMDYWGQGTQVTVSS
polyreactivity (PSR sort gate): low polyreactivity

QVQLVESGGGLVQAGGSLRLSCAASGRIFWSYAMGWYRQAPGKEREFVAVITWSGGSTYYADSVKGRFTISRDNAKNTVYLQMNSLKPEDTAVYYCAAGQWWYQVRFDYWGQGTQVTVSS
polyreactivity (PSR sort gate): low polyreactivity

QVQLVESGGGLVQAGGSLRLSCAASGRIFWSYAMGWYRQAPGKEREFVAVITWSGGSTYYADSVKGRFTISREYAKNTVYLEMNSLKPEDTAVYYCKADYYGPYRDYGYWGQGTQVTVSS
polyreactivity (PSR sort gate): low polyreactivity

QVQLVESGGGLVQAGGSLRLSCAASGRIFWSYGMGWYRQAPGKERELVAAITNTGDGTYYADSVKGRFTISRDNAKNTVYLQMNSLKPEDTAVYYCAVDYRGYWYWEYDYWGQGTQVTVSS
polyreactivity (PSR sort gate): high polyreactivity

QVQLVESGGGLVQAGGSLRLSCAASGRIFWVNAMGWYRKAPGKERELVARIRGRSGSTYYADSVKGRFTISRDNAKNPVYLQMNSLKREDTAVYYCAAREFRRPDIFLRDYWGQGTQVTVSS
polyreactivity (PSR sort gate): high polyreactivity

QVQLVESGGGLVQAGGSLRLSCAASGRIFWVYAMGWYRQAPGKEREFVADITWTGGSTYYADSVKGRFTISRDNAKNTVYLQMNSLKPEDTAVYYCAADSWSNYDYWGQGTQVTVSS
polyreactivity (PSR sort gate): high polyreactivity

QVQLVESGGGLVQAGGSLRLSCAASGRIFWWYAMGWYRQAPGKERELVAAISTGSRTYYADSVKGRFTISRDNAKNTVYLQMNSLKPEDTAVYYCNKDYWYGYSDFDYWGQGTQVTVSS
polyreactivity (PSR sort gate): low polyreactivity

QVQLVESGGGLVQAGGSLRLSCAASGRIFWYNAMGWYRQAPGKERELVATITSAGDTNYADSVKGRFTISRDNAKNTVFLQMNSLKPEDTAVYYCAKYYRWLITRRGSNDYWGQGTQVTVSS
polyreactivity (PSR sort gate): high polyreactivity

QVQLVESGGGLVQAGGSLRLSCAASGRIFWYYAMGGYRQAPGKERELVASITSGGRTKYADSVKGRFTISRDNAKNTVYLQMNSLKPEDTAVYYCAARLLIDYHADWWVAYDYWGQGTQVTVSS
polyreactivity (PSR sort gate): low polyreactivity

QVQLVESGGGLVQAGGSLRLSCAASGRIFWYYAMGWYRQAPGKEREFVAAITRRGGSTYYADSVKGRFTISRDNAKNTVYLQMNSLKPEDTAVYYCAAVGQKRSLGYSWGQGTQVTVSS
polyreactivity (PSR sort gate): low polyreactivity

QVQLVESGGGLVQAGGSLRLSCAASGRIFWYYGMGWYRQAPGKERELVASIRSGGSTNYADSVKGRFTISRDNAKNSVYLQMNSLKPEDTAVYYCAARPDYRYHYWGQGTQVTVSS
polyreactivity (PSR sort gate): high polyreactivity

QVQLVESGGGLVQAGGSLRLSCAASGRIFYANAMGWYRQAPGKERELVASISTTGDSTYYADSVKGRFTISRDNAKNTDYLQMNSLKPEDTAVYYCNTRGSEYLWYGYDYWGQGTQVTVSS
polyreactivity (PSR sort gate): low polyreactivity

QVQLVESGGGLVQAGGSLRLSCAASGRIFYAYAMGWYRQAPGKERELVAAITFSGGSTYADSVKGRFTISRDNAKNTVYLQMNSLKPEDTAVYYCAADFGRHPRDYDYYWGQGTQVTVSL
polyreactivity (PSR sort gate): low polyreactivity

QVQLVESGGGLVQAGGSLRLSCAASGRIFYAYTMGWYRQAPGKERELVAAISGSGSTYYADSVKGRFTISRDNAKNTVYLQMNSLKPEDTAVYYCAADVTGGRKYDYWGQGTQVTVSS
polyreactivity (PSR sort gate): low polyreactivity

QVQLVESGGGLVQAGGSLRLSCAASGRIFYDNAMGWYRQAPGKERELVAAIRIGGSTNYADSVKGRFTISRDNAKNTVYLQMNSLKPEDTAVYYCNGSDNPDSYYPDSVWGDSWGQGSQVTVSS
polyreactivity (PSR sort gate): low polyreactivity
